From the supplement of paper PMC9170038

Tested on: K4 kissing-loop RNA reporter
Assay: apparent KD of K4 kissing-loop reporter; higher = weaker reporter binding
Conditions: Eterna round: R107
Experimental: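 RNA-MaP round R107: designed RNA switches with theophylline, tryptophan, arginine or FMN aptamers are transcribed on-chip within common flanks. They are titrated with a labelled K4 kissing-loop RNA reporter in RNA-MaP buffer (100 mM Tris pH 7.5, 80 mM KCl, 4 mM MgCl2), without ligand or with the indicated ligand. Median apparent KD per design.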

[1] = input ligand: theophylline 20 uM
[2] = input ligand: tryptophan 2.4 mM
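Further: bound reporter read as fluorescence of individual clusters on recovered sequencing chips by microscopy, with normalized cluster intensities fitted with a binding model.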

Row | Sequence | apparent KD of K4 kissing-loop reporter (input ligand: FMN 200 uM) [µM] | apparent KD of K4 kissing-loop reporter (input ligand: arginine 13.2 mM) [µM] | apparent KD of K4 kissing-loop reporter (input ligand: none) [µM] | apparent KD of K4 kissing-loop reporter [1] [µM] | apparent KD of K4 kissing-loop reporter [2] [µM]
1 | CGCGUACAGUGUUCUACGGCCGAGAGUGAUACCAGCCGUAUUUGUGGCCCUUGGCAGCGCAGAUGCAGUGAUGUUGCAUACUUGG [Same State Theophylline A GF 21] | 0.0986 | 0.139 | 0.135 | 0.149 | 0.0854
2 | CGCUUGCACGGAAGGAGCGUCCAAGCGAGACACGAGUGAUGUUCGUGAUCGACGUAAACUGGACAGGUAGGUCGCCGUGCUUAAU [Eresti] | 0.107 | 0.091 | 0.121 | 0.101 | 0.1
3 | CGCUUGGGUGCGGCCGCCACUAGAGCGUGACACGGGUCCCAAAAGGGUGCAGUGAUGUUGCAGCCUAGGACCGGGCACCUCUGGC [Beveesbe] | 0.107 | 0.083 | 0.0904 | 0.0701 | 0.167
4 | CGGAGUCGCGGAAGGAGCGCUCGAUAGACAAGUUGAUCGUGCCGUGGUCGAGUGAUGUUCGAGCAGGUAGGUCGCCGUCGGUCCC [Cexeatedma] | 0.252 | 0.204 | 0.242 | 0.229 | 0.23
5 | CGGAGUGAUGUUCCUUUUAUUAAUUAUUAACGAGGACCGGUACGGCCGCCACUCGAUUUAGCUUUUAUUUAAUGCUUGGAUGUUU [JR_SSTryptoA_Sub003] | 0.132 | 0.224 | 0.157 | 0.246 | 0.077
6 | CGUACGGUUUCUUUCUUUCCGUACGAGUGCCGAGGACCGGUACGGCCGCCACUCGCUACAGCCUAGUGAUGUUAGGCGAUUCUUU | 0.129 | 0.117 | 0.125 | 0.163 | 0.102
7 | CGUUUAUAGCAGGAUACCAGUACCCAUAAAGUACGUUAAUAGUAGAGUGAUGUUCUAAAGUACCCUUGGCAGCUUAGAGUGAGUG [ExTheophylB.Q] | 0.0935 | 0.159 | 0.117 | 0.137 | 0.0764
8 | CGUUUAUAGCAGGAUACCAGUACCGAUAAAGUACGUUAAUAGUAGAGUGAUGUUCUAAAGUACCCUUGGCAGCUUAGAGUGAGUG [ExTheophylB.P] | 0.0953 | 0.142 | 0.111 | 0.162 | 0.0745
9 | CUCCUUGGCUAAGGAUAUCGUAGUGAUGUUAUGGUCUUUGCUAAGACUUCUGAUAUUGAAUUCCGACGAGAAGGUAGAAGGACGG [theeternabot_exclusion_KL_FMN_B_18] | 0.817 | 0.69 | 0.835 | 0.745 | 0.626
10 | CUCGAGUGAUGUUCGAUUAUUUAUACAGAUACCAGUGAAUUUUAACACCCUUGGCAGCUGGUAGUAUCGUUGUAAUUUACACAAG [JR_ExcTheophyA_Sub004] | 0.0998 | 0.163 | 0.116 | 0.168 | 0.0879
11 | CUCGUGGGUUUGAGAGGGCUUGUGGGAAGUGAGGAUAUUUAGGGAGAAAGAAGGCACUAUAAAAUAUAGUGAUGUUAUAUAAGGG [SSFMNA.M] | 0.494 | 0.138 | 0.188 | 0.751 | 0.347
12 | CUGACGAUGACACGGUGGCCGCUGGUCGUGCGAGGACCGGUACGGCCGCCACUCGCAUGAGUGAUGUUCAUGUGUCGUCGUCGUC [#08 K4 Tryptophan A Exclusion] | 0.133 | 0.101 | 0.111 | 0.112 | 0.118
13 | CUGACGUGCGGUAGGUUCAAGUGCUGGGAAGGAGCGCAGAUGACUGCAGGUAGGUCGCCCAGUGAUGUUGGGCUUUCCACCUACG [Quinbe] | 0.186 | 0.18 | 0.193 | 0.214 | 0.186
14 | CUGACUAAAUAGUCAGUGAUGUUGACUGGACGAGGACCGGUACGGCCGCCACUCGAGAGUGGUGUAAUAUAUGUCAUAUAGUCAA [Tryp A SS t3] | 0.517 | 0.258 | 0.436 | 0.423 | 0.233
15 | CUGUCAUGGGAUGGGCCAGUGAUGUUGGGCCGAGGACCGGUACGGCCGCCACUCGUAGCACAGUGCGCGCUAGCAUUGUACGUCA [theeternabot_exclusion_KL_Trp_A_35] | 1.26 | 0.629 | 0.977 | 0.808 | 0.456
16 | CUUAGGUCAGUUACCCGAGUGAUGUUCUGUCGAGGACCGGUACGGCCGCCACUCGCUCAUUAUCGGUCUGACAAAGAGCUGGCUU [theeternabot_exclusion_KL_Trp_A_9] | 0.393 | 0.0564 | 0.208 | 0.136 | 0.106
17 | CUUCGAUUAACAGAUACCAGUCACUUGGGAGCCACACACAAGUGAGUGAUGUUCACUUGUGACCCUUGGCAGCUGUUAGUCGAAG [#04 K4 Theophylline B Exclusion] | 0.102 | 0.0865 | 0.0972 | 0.127 | 0.103
18 | CUUGAUCGAGGAAGGAGCGGGCCGUCAUUGAGCGCAGUGAUGUUGCGUUCGACUAGUCGAGCCCAGGUAGGUCGCCUGGAGUAAG [Lazalaa] | 0.0849 | 0.0761 | 0.0982 | 0.0782 | 0.0908
19 | CUUGAUGUAGCGGCCGCCACUCUAGAUCCGCAUCGGAUGAGGUACUUGAAGUGAUGUUUUGAGGUGAGGACCGGGCUCUAAAGAA [theeternabot_sameState_KL_Trp_B_16] | 0.75 | 0.455 | 0.564 | 0.452 | 0.419
20 | CUUGUACAUGCCGAGGUAGGUGCGGGUUAGCGAGGACCGGUACGGCCGCCACUCGCCAAGUGAUGUUUGGUCCUUUGGAUCGGCA | 1.22 | 0.453 | 0.366 | 0.69 | 0.183
21 | GAAAGAAAGUAUGAUACCAGACACCCGAGUGAUGUUCGGAGCAGAGUGAUGUUCUUUUAAGUCCCUUGGCAGCAUAAAAGAAAAG [whbob_SS_Theo_B_sa83] | 0.192 | 0.219 | 0.238 | 0.294 | 0.166
22 | GAAUGAUAGUAAGGAUAUAGAUAAUCCUUAUAUAUAUCGAGUGAUGUUCGAUGUGGCAAGAUACAUCUAGAAGGUACUGUAAGGU [Same State FMN B GF 16] | 0.309 | 0.321 | 0.361 | 0.361 | 0.24

Row | Sequence | apparent KD of K4 kissing-loop reporter (input ligand: FMN 200 uM) [µM] | apparent KD of K4 kissing-loop reporter (input ligand: arginine 13.2 mM) [µM] | apparent KD of K4 kissing-loop reporter (input ligand: none) [µM] | apparent KD of K4 kissing-loop reporter [1] [µM] | apparent KD of K4 kissing-loop reporter [2] [µM]
23 | GACAGCCGGUCGGCCGCCACUUGGAGUGAUGUUCCGCGCGGCGGGCGCCGGAGGGCGUUAAGCCCAAGGACCGGGACCGGUAACG [Celeso] | 0.114 | 0.103 | 0.0929 | 0.114 | 0.104
24 | GACGUGCGAGAGACCGCUCUACCUUGAGAUCGAGGACCGGUACGGCCGCCACUCGGUGUUUAACGUCGAUCCCAGUGAUGUUGGA [theeternabot_sameState_KL_Trp_A_21] | 0.521 | 0.23 | 0.429 | 0.45 | 0.234
25 | GACUCUCUCGUCAGGAAGACGCACUCAGCCAAGGAUAUUAUGUUUUUAAGAAGGUGGACUUAUGCCAGUGAUGUUGGCAGAUACG [theeternabot_sameState_KL_FMN_A_29] | 0.0506 | 0.0861 | 0.0676 | 0.0999 | 0.0571
26 | GAGGCCAGACUGAGUGAUGUUUAGUAUGAUACCAGUAUCGAAGGAUACCCUUGGCAGCAUGCCACGGCCUCGGCGGGAAACCGCC | 0.746 | 0.663 | 1 | 0.714 | 0.876
27 | GAGGUAUGCGCAGUGAUGUUGCGACGAGAUACCAGUCGUUCUGUCGACCCUUGGCAGCUCCCACCAGACGUACGAGUUUGUGUUG [theeternabot_sameState_KL_Theo_A_10] | 0.114 | 0.111 | 0.113 | 0.113 | 0.0995
28 | GAGUCCUUUGAAGGAUAUAGACGUCCCGAUCACUCAGUUGGCGAGCGAGUGAUGUUCGUUCCUAUACUAGAAGGUCAAAGCCUCC [theeternabot_sameState_KL_FMN_B_32] | 0.225 | 0.193 | 0.211 | 0.204 | 0.205
29 | GAUCAUAGCACGGCCGCCACUGAUAUGCCGUGCUAUACGAGUGAUGUUCGUAAUUAUACGGGUAUCAGGACCGGGUGCAACGGUA [Tryp B SS t2] | 0.149 | 0.0893 | 0.113 | 0.167 | 0.112
30 | GAUCUGAACGAAAGUUCGGAUCAGUCCGAUACCAGUAUGGAUUCAUACCCUUGGCAGCGGUUAUCUGCUAUGGAGUGAUGUUCCA [Theophylline A K4 11] | 0.502 | 0.344 | 0.483 | 0.321 | 0.348
31 | GAUGCCAUGAUCCUCCUGGUAUCGGGAGAUACCAGCGUGCUGACACGCCCUUGGCAGCUCCAUUCGAGAGUGAUGUUGUCGAGAA [KL-SSTheo-A8 #analogue] | 0.453 | 0.114 | 0.33 | 0.237 | 0.287
32 | GAUUGUGAUGGAAACAUCGCAAUCUCUGAAGGAGCGCGUGAAAACGCAGGUAGGUCGCAGGACGACAAAGACAGUGAUGUUGUCA [Ex Arginine A K4 1] | 0.335 | 0.319 | 0.311 | 0.369 | 0.38
33 | GAUUUAGAGGCGGCCGCCACUAGUGAUGUUAGUGAUGUUUGAUACUGAAUAUAUCUGCGUGUAGAUAGGACCGGGCCAGAUGGAG [eyerullin] | 0.21 | 0.171 | 0.186 | 0.184 | 0.18
34 | GAUUUAGAGGCGGCCGCCACUAGUGAUGUUAGUGAUGUUUGAUACUGAAUAUAUCUGCGUUUAGAUAGGACCGGGCCAGAUGGUG [ddcmullin] | 0.261 | 0.159 | 0.193 | 0.215 | 0.197
35 | GCAGGCGUAAAAGGAUAUCAGGCUCUCUAGACACGAGUGAUGUUUGUGUAGGUAACGUAAUAGGCAUGAGAAGGUUUCACUUAAA [theeternabot_sameState_KL_FMN_B_49] | 0.608 | 0.43 | 0.547 | 0.524 | 0.416
36 | GCAGUGAUGUUGCACGAGUAGGCUAGAGUACGAGGACCGGUACGGCCGCCACUCGUACGGAAGUCGCUAAUUUAUGGAAUGGUGA [#05 K4 Tryptophan A Same State] | 0.713 | 0.473 | 0.548 | 0.455 | 0.435
37 | GCAUGGAUCGCAGGAUAUAGAUCCGUGAGUGAAUUCUUGCCAGUGAGGAGUGAUGUUCCUCAUGGGCUAGAAGGGCGAUCCAUGC | 0.14 | 0.0808 | 0.0894 | 0.0859 | 0.0835
38 | GCCAGCAGUACUGAUACCAGACUGCAUGUAGUGAUGUUGCAUAAGGGCAUAGAUGUCUCAGUCCCUUGGCAGCGGUACUGUUGCA [#10 K4 Theophylline B Same State] | 0.335 | 0.252 | 0.33 | 0.199 | 0.241
39 | GCCAGUGCACGAAGGAGCGCCGUGACAGGUUACUGCCUUGGGCAGUGAUGUUGCUCAAUCUGGCAGGUAGGUCGCGUGCACUGGC | 0.169 | 0.147 | 0.17 | 0.175 | 0.177
40 | GCCGCCGCGGCAGGAUAUAGACAUUGAGUGAUGUUCGGUGCUUAUCCAAAGUGCUGUUUCGGCCAACUAGAAGGGCCGCGGCGGC | 0.204 | 0.094 | 0.119 | 0.103 | 0.119
41 | GCCGUACGCAUGGAUACCAGAGAUGUUAAUCUCGAUGCCAGUGAUGUUGGCUUUAGCAUACUCCCUUGGCAGCCAUGCGUACGGC | 0.312 | 0.241 | 0.292 | 0.186 | 0.267
42 | GCCGUACGCAUGGAUACCAGCAAUAUGCUACGUUGUAGUAGUAUAACCAGUGAUGUUGGAUGCCCUUGGCAGCCAUGCGUACGGC | 0.736 | 0.673 | 0.897 | 0.349 | 0.855
43 | GCCGUACGCAUGGAUACCAGCCGACAUGAUAUUUAGCUGGUGUCGUAGUGAUGUUACGAAGGCCCUUGGCAGCCAUGCGUACGGC | 0.0837 | 0.0727 | 0.0782 | 0.0791 | 0.0787
44 | GCCGUACGCAUGGAUACCAGUUGCGAAGUGAUGUUUCGGGCGAUCAAAGGAUCGCCCAACAACCCUUGGCAGCCAUGCGUACGGC | 0.216 | 0.0425 | 0.119 | 0.108 | 0.133
